We go through two molecules from PMC11695829, “DSIF factor Spt5 coordinates transcription, maturation and exoribonucleolysis of RNA polymerase II transcripts” (Nature Communications, 2025).

Test [1] concerns the target C-terminally truncated Xrn2 (residues 1–885), WT (S. pombe).
For test [2], the target named is T1, Full-length Spt4/5 heterodimer (DSIF) (S. pombe, UniProt O13936 1-990; Q9P7K8 1-105).
T1 construct: Spt5 of S. pombe, full length; Spt4 of S. pombe, full length; Co-expressed heterodimer, used as one preformed complex in all in vitro experiments; Only the Kow5 domain of Spt5 is seen in the cryo-EM map; also called Spt5-Spt4; Spt5
T1 sequence (looked up) 1: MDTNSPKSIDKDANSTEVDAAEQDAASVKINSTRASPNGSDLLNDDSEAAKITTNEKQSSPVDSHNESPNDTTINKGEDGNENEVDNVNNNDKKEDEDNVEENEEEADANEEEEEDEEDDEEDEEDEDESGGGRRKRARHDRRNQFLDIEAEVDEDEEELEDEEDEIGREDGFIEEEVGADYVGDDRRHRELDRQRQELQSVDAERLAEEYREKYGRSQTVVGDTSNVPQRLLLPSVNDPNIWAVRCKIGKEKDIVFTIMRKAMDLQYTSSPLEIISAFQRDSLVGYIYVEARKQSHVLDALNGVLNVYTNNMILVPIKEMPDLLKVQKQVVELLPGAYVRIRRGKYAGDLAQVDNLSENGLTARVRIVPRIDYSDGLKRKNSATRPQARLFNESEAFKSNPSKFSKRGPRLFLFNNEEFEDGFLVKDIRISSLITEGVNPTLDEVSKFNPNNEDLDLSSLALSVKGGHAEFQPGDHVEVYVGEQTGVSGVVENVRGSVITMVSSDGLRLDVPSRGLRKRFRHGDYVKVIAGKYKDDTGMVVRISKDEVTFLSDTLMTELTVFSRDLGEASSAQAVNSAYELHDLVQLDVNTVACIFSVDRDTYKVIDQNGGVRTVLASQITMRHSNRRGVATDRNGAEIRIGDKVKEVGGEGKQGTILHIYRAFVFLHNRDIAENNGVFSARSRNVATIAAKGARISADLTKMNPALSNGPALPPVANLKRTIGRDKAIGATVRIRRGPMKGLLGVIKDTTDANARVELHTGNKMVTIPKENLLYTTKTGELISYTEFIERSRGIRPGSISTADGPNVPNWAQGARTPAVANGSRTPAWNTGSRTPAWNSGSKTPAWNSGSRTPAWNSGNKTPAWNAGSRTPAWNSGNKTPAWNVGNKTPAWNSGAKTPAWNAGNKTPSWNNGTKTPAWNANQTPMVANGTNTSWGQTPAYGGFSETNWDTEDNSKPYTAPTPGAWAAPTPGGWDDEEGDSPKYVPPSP
T1 sequence (looked up) 2: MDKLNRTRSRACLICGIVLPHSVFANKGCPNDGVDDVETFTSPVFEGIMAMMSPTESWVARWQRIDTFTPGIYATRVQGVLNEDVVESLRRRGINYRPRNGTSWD
Description: pull-down; Rai1 immobilised on beads and challenged with Xrn2 or Xrn2/Spt4/5; no Pol II. Conditions: both partners purified.

B1: Kow5-sCTR (Spt5 region 720 to 874 aa, N-terminal His-tag) (domain or fragment)
chain: LKRTIGRDKAIGATVRIRRGPMKGLLGVIKDTTDANARVELHTGNKMVTIPKENLLYTTKTGELISYTEFIERSRGIRPGSISTADGPNVPNWAQGARTPAVANGSRTPAWNTGSRTPAWNSGSKTPAWNSGSRTPAWNSGNKTPAWNAGSRTPA
On to B1, for which the half-life of normalised anisotropy (a proxy for substrate half-life) in the degradation of P-RNA-FAM by Xrn2, fluorescence anisotropy; decrease in the presence of Kow5-sCTR in test [1] was 3 fold.

B2: full-length Rai1 Strep-tagged (natural protein, S. pombe, UniProt O13836 1-352, looked up)
chain: MLREFSFYDVPPAHVPPVSEPLEIACYSLSRDRELLLDDSKLSYYYPPPLFSDLNTGFPNRFHPPKSDPDPISIVKDVLMTKGIQMNSSFLTWRGLITKIMCAPLDPRNHWETYLVMDPTSGIIMMEERTRSETSYANQDRMCYWGYKFEAISTLPEIWDACSRDQIEQRDNQDVVPDEQYCSIVKINIGKSKLILAGEVDCIWDKKPCSAKESDVHSDDGTIEEDASNAENPNLHYVELKTSKKYPLENYGMRKKLLKYWAQSFLLGIGRIIIGFRDDNGILIEMKELFTHQIPKMLRPYFKPNDWTPNRLLVVLEHALEWIKQTVKQHPPSTEFTLSYTGGSKLVLRQII
notes: source: Rosetta E. coli, purified (StrepTrap HP, Superdex 200)
For the molecule B2, the binding result in test [2] was “binds”.
